Target: double-mutant TPX2 (2M-TPX2) (Xenopus laevis) (UniProt Q6NUF4)
Assay: BLI; Octet (ForteBio); TPX2 attached to sensors, importin concentration varied; normalized amplitudes; apparent Kd

Sequence of importin-αΔIBB (truncated importin-α without the importin-β-binding domain) (domain or fragment) (P52170 71-522, stated change not applied): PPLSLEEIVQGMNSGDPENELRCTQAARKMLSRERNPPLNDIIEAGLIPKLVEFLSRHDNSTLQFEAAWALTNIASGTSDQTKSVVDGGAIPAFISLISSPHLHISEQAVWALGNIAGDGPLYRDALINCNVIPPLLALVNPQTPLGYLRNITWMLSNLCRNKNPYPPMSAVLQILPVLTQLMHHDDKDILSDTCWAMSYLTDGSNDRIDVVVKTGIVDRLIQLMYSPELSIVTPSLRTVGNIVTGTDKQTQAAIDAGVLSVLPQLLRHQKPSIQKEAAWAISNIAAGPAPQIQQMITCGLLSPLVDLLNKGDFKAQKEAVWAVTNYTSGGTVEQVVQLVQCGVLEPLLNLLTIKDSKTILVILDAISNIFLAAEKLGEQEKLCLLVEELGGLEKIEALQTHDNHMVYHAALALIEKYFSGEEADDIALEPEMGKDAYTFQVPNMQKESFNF

## importin-αΔIBB (truncated importin-α without the importin-β-binding domain) (domain or fragment)
  Kd: 45 nM
